“And” between values parts separate entries of the source, which are not always exact repeats. Identical values can stand only once.
Tests used:
[1] = test system: Pp-cpSRP54-His (Physcomitrella patens); assay: MST; details: 5 mM Mg2+, MST: 300 mM NaCl, 2.7 mM KCl, 10 mM Na2HPO4, 1.8 mM K2HPO4, 5 mM MgCl2, 2 mM DTT, 0.05% Tween20, pH 7.3, labeled Pp-cpSRP54 10-20 nM, temperature not stated …
[2] = target: At-His-cpSRP43, fluorescently labeled (Arabidopsis thaliana) (UniProt O22265); assay: MST; labeled cpSRP43 (20 nM) or eGFP-Cg-43 (75 nM) constant, cpSRP54 constructs titrated; 300 mM NaCl, 2.7 mM KCl, 10 mM Na2HPO4, 1.8 mM K2HPO4, 5 mM MgCl2, 2 mM DTT, 0.05% Tween20, pH 7.3; Monolith NT.115, MST power 20%, LED power 20%
[3] = target: Cg-His-eGFP-cpSRP43 (Chaetosphaeridium globosum); assay: as above
[4] = target: Chaetosphaeridium globosum cpSRP43(D189Y) (Chaetosphaeridium globosum); assay: as above
[5] = target: Pp-His-cpSRP43, fluorescently labeled (Physcomitrella patens); assay: as above
At-His-cpSRP54 [6] = target: T1, At-His-cpSRP54 (Arabidopsis thaliana, UniProt P37107 76-564); assay: as above; details: both partners purified
T1 construct: cpSRP54 of Arabidopsis thaliana; the results call it 'full-length' as against the M-domain; also called At-His-54; At-54; source: E. coli BL21(DE3) or Rosetta2(DE3), purified (Ni-NTA, desalted); not shown: His tag, N-terminal, kept
T1 sequence (looked up): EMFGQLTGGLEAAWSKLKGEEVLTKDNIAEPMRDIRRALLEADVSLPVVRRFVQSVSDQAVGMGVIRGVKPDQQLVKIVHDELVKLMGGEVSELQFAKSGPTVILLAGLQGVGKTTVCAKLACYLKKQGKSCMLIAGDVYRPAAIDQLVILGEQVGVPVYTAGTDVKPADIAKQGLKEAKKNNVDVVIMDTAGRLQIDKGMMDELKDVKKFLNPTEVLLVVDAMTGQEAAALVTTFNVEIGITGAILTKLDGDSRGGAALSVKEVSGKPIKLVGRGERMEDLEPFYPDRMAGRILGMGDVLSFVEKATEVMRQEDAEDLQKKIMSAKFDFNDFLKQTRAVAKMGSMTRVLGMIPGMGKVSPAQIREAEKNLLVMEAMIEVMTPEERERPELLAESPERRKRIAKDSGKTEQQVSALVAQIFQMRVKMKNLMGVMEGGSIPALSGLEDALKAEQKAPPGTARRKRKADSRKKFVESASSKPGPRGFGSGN

At-His-cpSRP54 [7] = target: T1, At-His-cpSRP54; assay: pull-down; GST-cpSRP43 constructs on glutathione-sepharose, 20 μg of GST- and His-fusion constructs; eluates by SDS-PAGE and Coomassie staining; details: both partners purified

Ec-SRP RNA
Kd ([1]; one of two replicate values): 17 nM and 27 nM

At-His-cpSRP54M (domain or fragment)
Kd [2]: 60 nM and 90 nM

Ot-cpSRP RNA
Kd [1]: 185 nM

Pp-cpSRP RNA
Kd [1]: 1300 nM

Cg-His-cpSRP54M (domain or fragment)
Kd [3]: 11000 nM
Kd [4]: 10000 nM and 11000 nM

Pp-cpSRP54-His (natural protein)
Kd [5]: 9000 nM

B1: At-His-cpSRP43, fluorescently labeled (natural protein, Arabidopsis thaliana, UniProt O22265 57-373, looked up)
chain: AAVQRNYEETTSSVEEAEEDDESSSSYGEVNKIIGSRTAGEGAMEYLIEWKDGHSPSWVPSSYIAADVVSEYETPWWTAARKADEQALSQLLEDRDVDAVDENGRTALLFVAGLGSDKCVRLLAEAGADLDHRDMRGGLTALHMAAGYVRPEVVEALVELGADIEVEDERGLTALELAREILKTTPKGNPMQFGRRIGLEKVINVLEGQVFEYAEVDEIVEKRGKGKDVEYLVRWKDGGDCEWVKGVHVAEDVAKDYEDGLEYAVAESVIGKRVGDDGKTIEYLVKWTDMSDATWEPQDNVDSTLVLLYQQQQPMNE
modifications: fluorescent label on amines (Monolith NT.115 Protein Labeling Kit RED-NHS)
notes: cpSRP43 of Arabidopsis thaliana; the results speak of the 'full-length Arabidopsis thaliana cpSRP subunits'; the construct is not described among the plasmids; also called Ath-His-cpSRP43; At-43; source: E. coli BL21(DE3) or Rosetta2(DE3), purified (Ni-NTA, desalted); not shown: His tag, N-terminal, kept
Kd (At-His-cpSRP54 [6]): 50 nM and 60 nM

B2: At-GST-cpSRP43 (natural protein, Arabidopsis thaliana, UniProt O22265 57-373, looked up)
chain: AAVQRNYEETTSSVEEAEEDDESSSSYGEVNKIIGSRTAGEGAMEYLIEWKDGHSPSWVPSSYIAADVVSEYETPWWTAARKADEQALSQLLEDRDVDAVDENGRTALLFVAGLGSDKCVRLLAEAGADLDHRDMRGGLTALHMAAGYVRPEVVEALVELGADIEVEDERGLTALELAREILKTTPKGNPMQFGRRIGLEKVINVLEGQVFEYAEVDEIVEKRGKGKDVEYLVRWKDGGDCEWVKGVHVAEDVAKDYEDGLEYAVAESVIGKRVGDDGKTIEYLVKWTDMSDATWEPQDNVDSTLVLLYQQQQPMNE
notes: cpSRP43 of Arabidopsis thaliana in pGEX4T3; also called At-GST-43; GST-cpSRP43 from Arabidopsis thaliana; source: E. coli BL21(DE3) or Rosetta2(DE3), purified (glutathione-sepharose); not shown: GST, N-terminal, kept
binding result (At-His-cpSRP54 [7]): binds

B3: At-GST-cpSRP43(Y269E) (natural protein, Arabidopsis thaliana, UniProt O22265 57-373, looked up)
chain: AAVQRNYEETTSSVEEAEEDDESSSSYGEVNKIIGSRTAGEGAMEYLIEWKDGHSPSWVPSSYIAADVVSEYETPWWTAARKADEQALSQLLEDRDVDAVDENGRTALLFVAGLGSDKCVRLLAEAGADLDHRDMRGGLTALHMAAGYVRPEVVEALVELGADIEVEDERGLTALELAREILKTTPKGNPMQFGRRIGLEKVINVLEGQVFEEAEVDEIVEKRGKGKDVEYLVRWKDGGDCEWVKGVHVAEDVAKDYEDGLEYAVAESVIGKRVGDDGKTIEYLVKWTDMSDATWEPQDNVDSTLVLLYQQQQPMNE
notes: cpSRP43 of Arabidopsis thaliana in pGEX4T3, with Y269E; made from the construct of m9; also called pGEX4T3-At-GST-cpSRP43(Y269E); source: E. coli BL21(DE3) or Rosetta2(DE3), purified (glutathione-sepharose); not shown: GST, N-terminal, kept
binding result (At-His-cpSRP54 [7]): binds

B4: At-GST-cpSRP43(Y269D) (natural protein, Arabidopsis thaliana, UniProt O22265 57-373, looked up)
chain: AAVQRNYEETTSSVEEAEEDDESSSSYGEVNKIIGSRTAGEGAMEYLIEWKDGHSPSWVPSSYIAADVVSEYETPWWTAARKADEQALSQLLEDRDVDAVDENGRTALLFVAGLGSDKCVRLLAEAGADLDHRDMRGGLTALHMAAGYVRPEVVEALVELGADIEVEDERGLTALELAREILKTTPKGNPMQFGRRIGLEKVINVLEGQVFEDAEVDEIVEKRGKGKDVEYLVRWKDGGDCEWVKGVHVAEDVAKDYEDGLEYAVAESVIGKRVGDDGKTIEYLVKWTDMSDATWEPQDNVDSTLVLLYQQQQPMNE
notes: cpSRP43 of Arabidopsis thaliana in pGEX4T3, with Y269D; made from the construct of m9; also called pGEX4T3-At-GST-cpSRP43(Y269D); source: E. coli BL21(DE3) or Rosetta2(DE3), purified (glutathione-sepharose); not shown: GST, N-terminal, kept
binding result (At-His-cpSRP54 [7]): binds
